Results on eleven molecules are retold here after patent US20220119522A1 (DENALI THERAPEUTICS, published 2022).

No end group written: not given here.

Assay in all cases: ELISA on biotinylated peptide captured by streptavidin; A450 normalised to isotype control
Assay [1] addresses T1, human TREM2 full length stalk region peptide (aa 129-172) (human, biotinylated (site not stated)).
T1 construct: also called Human TREM2 peptide (aa 129-172); full-length TREM2 stalk peptide
T1 peptide: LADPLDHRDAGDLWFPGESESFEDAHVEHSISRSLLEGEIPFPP
The procedure:
(§1) TREM2 antibodies were evaluated for binding to human and mouse TREM2 stalk region peptides. […] Antibody binding to TREM2 stalk peptides was detected using standard sandwich ELISA. Briefly, a 96-well half-area ELISA plate was coated with streptavidin overnight at 4° C. The following day, biotinylated TREM2 stalk peptides diluted in 1% BSA/PBS were added to the plate and incubated for 1 hour. Antibodies diluted in 1% BSA/PBS were then added and incubated for 1 hour. Antibodies bound to peptide were detected with anti-human kappa-HRP secondary antibody (Bethyl Laboratories, Inc.) diluted in 1% BSA/PBS. Plates were assayed by reaction with a detection reagent (One-step TMB Ultra, Thermo) and measurement of absorbance at 450 nm (A450) by standard spectrophotometry instrumentation (BioTek®). Data are shown as normalized values (fold over background where background=isotype control).

Assay [2] has as its target T2, mouse TREM2 full length stalk region peptide (aa 131-169) (mouse, UniProt Q99NH8 131-169, biotinylated (site not stated)).
T2 peptide (looked up): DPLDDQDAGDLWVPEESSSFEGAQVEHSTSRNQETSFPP
The procedure: as §1

For assay [3], the target named is T3, human TREM2 truncated stalk peptide (aa 149-163) (human, also: biotinylated (site not given here)).
T3 construct: also called Human TREM2 peptide (aa 149-163); truncated stalk peptide containing the ADAM10/17 cleavage site
T3 peptide: SFEDAHVEHSISRSL
The procedure:
as §1

B1: CL0020162 (antibody, V domains shown)
VH: QIQLVQSGPELKKPGESLKISCKASGYTFTDYAMQWVKQAPEKGLQYMGWINTQTGKPTYADDFKERFVFSLETSATTAYLQINNLKNEDMATYFCVRSYNNYENWFAYWGQGTLVTVSS
VL: DIVMTQSPSSLAVSAGETVTINCKSSQSLLYSGNQKNYLAWYQQKPGQSPKVLIYWASTRQFGVPDRFIGSGSGTDFTLTISSVQAEDLAIYYCQQYYNSPITFGSGTKLEIK
notes: also called Clone CL0020162
For B1, the entries for the “fold over background (A450)” value in assay [1], in assay [2] and in assay [3] were 49 fold, 10 fold and 1.3 fold, respectively.

B2: CL0020214 (antibody, V domains shown)
VH: QVRLQQSGAELVRPGSSVKLSCKASGYAFSSYWMNWVKQRPGQGLEWIGQIYPGDGDTNYNGNFKGKATLTADNSSSTAYMQLSSLTSEDSAVYFCARRRNGDFGDYAMDYWGQGTSVTVSS
VL: QIVLTQSPAIMSASPGEKVTISCSASSSVSYMCWYQQKPGSSPKPWIYRTSTLASGVPARFSGSGSGTSYSLTISSMEAADAATYYCQHYHSYPFTFGAGTKLELK
notes: also called Clone CL0020214
B2: the figures for the “fold over background (A450)” value in assay [1], in assay [2] and in assay [3] were 1.5 fold, 1.3 fold and 1.3 fold, respectively.

B3: CL0020109 (antibody, V domains shown)
VH: EVQLQQSGPVLVKPGASLKMSCRASGYTFTDYYVHWVKQSHGKSLEWIGLINPYTGTTSYNQRFKGKATLTVDKSSSTAYMEVNSLTSEDSAVYYCARSRVYYGSSLFAFWGQGTLVTVSA
VL: DIVMTQSPSSLSVSAGEKVTMSCKSSQSLLNSGNQKNYLAWYQQKPGQPPKLLIYGASTRESGVPDRFTGSGSGTDFTLTISSVQAEDLAVYYCQNDHSYPYTFGGGTKLEIK
notes: also called Clone CL0020109
Take B3: the “fold over background (A450)” value came out at 1.7 fold in assay [1], 1.7 fold in assay [2] and 1.5 fold in assay [3].

B4: CL0020124 (antibody, V domains shown)
VH: EVQLQQSGPVLVKPGASVKMSCKPSGYTFTDYYMNWVKQSHGKSLEWIGSINPYTGGSSYNQKFRGKATLTVDKSSSTAYMELNSLTSEDSAVYYCARGSYYSNLGFAYWGQGTLVTVSA
VL: DVQLTQSPSYLTASPGETITINCRASKSISKYLAWYQEKPGKTNKLLISSGSTLQSGIPSRFSGSGSGTDFTLTISSLEPEDFAMYYCQQYSEYPFTFGSGTKLEIK
notes: also called Clone CL0020124
In the case of B4, the entries for the “fold over background (A450)” value in assay [2] and in assay [3] were 1.6 fold and 1.5 fold, respectively.

B5: CL0020186 (antibody, V domains shown)
VH: EVQLVESGGGLVQPGRSLKLSCPASGFTFSYYGMAWVRQAPTKGLEWVASISTGGGNTYYRDSVKGRFTISRDNAKNTLYLQMDSLRSEDTATYYCARGDIGTAYWFTYWGQGTLVTVSS
VL: NIQLTQSPSLLSASVGDRVTLSCKGSQNINNYLAWYQQKLGEAPKLLIYKTNSLLTGIPSRFSGSGSGTDYTLTISSLHSEDLATYYCYQYNNGWTFGGGTKLELK
notes: also called Clone CL0020186
Turning to B5, the “fold over background (A450)” value in assay [1] was 4.9 fold; in assay [2], 7 fold; in assay [3], 1.3 fold.

B6: CL0020103 (antibody, V domains shown)
VH: EVQLQQSGPELVKPGASVKISCKTSGYTFTEYTMHWVKESHGKSLEWIGGINPNKGGSSYNQKFKGKATLTVDKSSSTAYMDLRRLTSEDSAVYYCARGGYEYYALDYWGQGTSVTVSS
VL: DIVMSQSPSSLTVSVGERVTMSCKSSQSLLYSRNQKNYLAWYQQKPGQSPKLLIYWASTRESGVPDRFTGSGSGTDFSLTISSVKAEDLAVYYCQQYYSYPPTFGGGTKLEIK
notes: also called Clone CL0020103
As for B6, the “fold over background (A450)” value was 56 fold in assay [1], 4.1 fold in assay [2] and 1.8 fold in assay [3].

B7: CL0020215 (antibody, V domains shown)
VH: QVQLQQPGAELVKPGASVKMSCKASGYTFTNYWIMWVKQRPGQGLEWIGDIYPSSGSTNYNEKFKNRATLTVDTSSNTAYMQLSSLTSEDSAVYFCSREGYGISAWGQGTTLTVSS
VL: QIVLTQSPAIMSASPGEKVTITCSASSSVSYMHWFQQKPGTSPKLWIYSTSNLASGVPARFSGSGSGTSCSLTISRMEAEDAATYYCQQRSSFPLTFGAGTKLELK
notes: also called Clone CL0020215
For the molecule B7, the “fold over background (A450)” value in assay [1] came out at 1.2 fold; in assay [2], 1.1 fold; in assay [3] it was 1.1 fold.

B8: CL0020111 (antibody, V domains shown)
VH: QVQLQQPGADLVKPGASVKMSCKASGYTFTNYWITWVQQRPGQGLEWIGDIYPGSGNTNYNEKFRSKATLTVDTSSNTAYMQLSSLTSEDSAVYYCSREGYGISAWGQGTTLTVSS
VL: QIVLTQSPAFMSASPGEKVTITCRASSSVSYMHWFQQKPGTSPKLWIFSTSNLASGVPARFSGSGSGTSHSLTISRMEAEDAATYYCQQRSGYPLTFGAGTKLELK
notes: also called Clone CL0020111
As for B8, the “fold over background (A450)” value in assay [1] was found to be 1.3 fold; in assay [2], 1.1 fold; in assay [3], 1.6 fold.

B9: CL0020161 (antibody, V domains shown)
VH: EVQLVESGGGLVQPGRSMKLSCAALGFTFSNYYMAWVRQAPRKGLEWVASISTGGDNTYYRDSVKGRFTISRDNAKSTLYMQMDSLRSEDTATYYCVRSFIVGTTGYYFDYWGQGVMVTVSS
VL: DIVLTQSPALAVSLGQRATISCKTNQNVDYYGNNYMHWYQQTPGQQPKLLIYFASNLASGIPARFSGRGSGTDFTLTIDPVEADDTATYYCQQSRNLPTFGGGTKLELK
notes: also called Clone CL0020161
B9: the entries for the “fold over background (A450)” value in assay [1], in assay [2] and in assay [3] were 1.4 fold, 1.2 fold and 1 fold, respectively.

B10: CL0020173 (antibody, V domains shown)
VH: EVKLLESGGGLVQPGSSMRLSCAASGFTFTDFYMNWIRQPAGRAPEWLGFFRNIVDGYTTEYNPSVKGRFTISRDNTQNMLYLQMNTLRAEDTATYYCARSGYSSYIYGGTFAYWGQGTLVTVSS
VL: ETVMTQSPTSMSTSIGERVTLNCKASQSVGIHVDWYQQTPGQSPKLLIYGASNRHTGVPDRFTGSGFGRDFTLTISNVEAEDLAVYYCLQYGSIPWTFGGGTKLELK
notes: also called Clone CL0020173
As for B10, the results for the “fold over background (A450)” value in assay [1], in assay [2] and in assay [3] were 1.6 fold, 1.2 fold and 1.2 fold, respectively.

B11: CL0020164 (antibody, V domains shown)
VH: EVKLLESGGGLVQPGGSLRLSCAASGFTFTDFYMSWIRQPPGKAPEWLGVIRNKANGFTTEYNTSVKGRFTISRDYTQNILHLQTNTLRAEDTAIYYCARLTYGFDYWGQGVMVTVSS
VL: DIVMTQGALPNPVPSGESASITCQSSKSLLHSNGKTYLNWYLQRPGQSPQFLIYWMSTRASGVSDRFSGSGSGTDFTLKISSVEAEDVGVYYCQQFLELPFTFGSGTKLEIK
notes: also called Clone CL0020164
Consider B11, for which the “fold over background (A450)” value in assay [1] came out at 50 fold; in assay [2], 51 fold; in assay [3], 1.4 fold.
